What all share (test): SPR
On the technique in general: Surface plasmon resonance follows binding to a sensor surface in real time, without labels.

The target of assay [1] is NL3A1A2 (rat neuroligin 3 cholinesterase-like region, with inserts A1 and A2) (rat, UniProt Q62889 42-633).
For assay [2], the target named is NL2A (rat neuroligin 2 cholinesterase-like region, with insert A) (rat, UniProt Q62888 46-612).
For assay [3], the target named is NL1AB (rat neuroligin 1 cholinesterase-like region, with inserts A and B) (rat, UniProt Q62765 48-638).
NL1AB (rat neuroligin 1 cholinesterase-like region, with inserts A and B), sequence (Q62765 48-638): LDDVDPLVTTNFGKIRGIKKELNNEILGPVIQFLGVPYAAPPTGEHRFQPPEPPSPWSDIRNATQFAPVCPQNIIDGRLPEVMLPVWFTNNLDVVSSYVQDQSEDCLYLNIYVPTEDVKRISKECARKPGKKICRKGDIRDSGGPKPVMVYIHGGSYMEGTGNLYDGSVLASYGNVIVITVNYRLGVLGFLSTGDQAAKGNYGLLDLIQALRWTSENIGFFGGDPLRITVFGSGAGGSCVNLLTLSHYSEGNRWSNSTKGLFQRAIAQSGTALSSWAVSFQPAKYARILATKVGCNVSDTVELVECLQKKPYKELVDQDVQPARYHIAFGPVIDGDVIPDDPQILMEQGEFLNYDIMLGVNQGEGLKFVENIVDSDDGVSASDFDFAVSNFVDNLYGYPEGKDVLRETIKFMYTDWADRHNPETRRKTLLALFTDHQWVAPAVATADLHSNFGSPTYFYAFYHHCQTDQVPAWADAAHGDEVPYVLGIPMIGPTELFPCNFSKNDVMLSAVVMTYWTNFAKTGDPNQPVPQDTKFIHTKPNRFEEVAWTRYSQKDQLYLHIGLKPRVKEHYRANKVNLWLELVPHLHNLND

Experimental findings from PMC2910870 (Neuron, 2010) are described below.

One may read the Kd as a measure of binding affinity in units of concentration.

NL2A (rat neuroligin 2 cholinesterase-like region, with insert A), sequence (Q62888 46-612): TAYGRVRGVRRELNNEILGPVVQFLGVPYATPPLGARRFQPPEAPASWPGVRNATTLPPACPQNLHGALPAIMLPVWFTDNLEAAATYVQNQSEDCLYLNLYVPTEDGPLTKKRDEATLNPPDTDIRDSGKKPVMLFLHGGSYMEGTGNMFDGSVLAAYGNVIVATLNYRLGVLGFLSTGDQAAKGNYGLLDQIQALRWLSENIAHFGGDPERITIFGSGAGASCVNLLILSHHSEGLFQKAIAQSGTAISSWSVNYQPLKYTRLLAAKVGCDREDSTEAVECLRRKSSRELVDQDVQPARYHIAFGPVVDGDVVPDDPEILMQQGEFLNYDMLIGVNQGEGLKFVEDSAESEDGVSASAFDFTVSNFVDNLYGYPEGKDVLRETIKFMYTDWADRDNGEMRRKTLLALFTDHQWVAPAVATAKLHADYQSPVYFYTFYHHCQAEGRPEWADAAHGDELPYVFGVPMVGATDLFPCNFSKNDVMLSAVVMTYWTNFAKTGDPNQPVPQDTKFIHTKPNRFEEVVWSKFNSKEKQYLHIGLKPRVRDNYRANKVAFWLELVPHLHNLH
NL3A1A2 (rat neuroligin 3 cholinesterase-like region, with inserts A1 and A2), sequence (Q62889 42-633): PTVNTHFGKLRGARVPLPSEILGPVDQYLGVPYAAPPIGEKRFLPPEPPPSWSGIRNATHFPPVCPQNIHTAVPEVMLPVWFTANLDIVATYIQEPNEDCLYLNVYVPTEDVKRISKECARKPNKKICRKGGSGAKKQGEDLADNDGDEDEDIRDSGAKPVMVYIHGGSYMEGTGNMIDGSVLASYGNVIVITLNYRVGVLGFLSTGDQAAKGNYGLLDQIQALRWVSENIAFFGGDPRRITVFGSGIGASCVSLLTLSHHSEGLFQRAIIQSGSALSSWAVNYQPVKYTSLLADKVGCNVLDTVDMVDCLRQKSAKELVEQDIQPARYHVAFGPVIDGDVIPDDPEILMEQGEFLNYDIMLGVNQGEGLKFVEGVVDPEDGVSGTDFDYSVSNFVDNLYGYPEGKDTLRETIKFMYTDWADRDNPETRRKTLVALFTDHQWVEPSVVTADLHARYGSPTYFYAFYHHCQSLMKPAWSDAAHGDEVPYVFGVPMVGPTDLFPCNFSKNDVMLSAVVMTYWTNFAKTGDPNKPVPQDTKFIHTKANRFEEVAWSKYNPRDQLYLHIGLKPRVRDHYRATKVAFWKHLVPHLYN

B1: β-NRX1+4 (mouse β-neurexin 1 LNS domain, with splice insert 4) (domain or fragment)
chain: not shown
modifications: N-glycosylation at Asn184
With B1, the Kd was 21 µM in assay [1], 3.17 µM in assay [2] and 2.82 µM in assay [3].

B2: β-NRX2+4 (rat β-neurexin 2 LNS domain, with splice insert 4) (domain or fragment)
chain: not shown
modifications: N-glycosylation at Asn186
On to B2, for which the Kd worked out at 48 µM in assay [1], 3.01 µM in assay [2] and 5.66 µM in assay [3].
